Experimental data published in patent US20260015399A1 (Boehringer Ingelheim, published 2026).
*1 amine or outer side, *2 acyl side, *3 side chain or, on linkers, in order; H or OH if unused. Side-chain parts run from the residue outwards. The star is where a group is joined. C18 diacid = O=C(O)CCCCCCCCCCCCCCCCC(=O)*; γGlu = O=C(O)[C@H](CCC(=O)[*:2])N[*:1]; Isovaleryl = CC(C)CC(=O)*; Ahx = NCCCCCC(=O)O

Columns and labels:
[1] = molecular target: T1, human NPY2 receptor (human, UniProt P49146 1-381); test: cell-based or functional assay
T1 sequence (looked up): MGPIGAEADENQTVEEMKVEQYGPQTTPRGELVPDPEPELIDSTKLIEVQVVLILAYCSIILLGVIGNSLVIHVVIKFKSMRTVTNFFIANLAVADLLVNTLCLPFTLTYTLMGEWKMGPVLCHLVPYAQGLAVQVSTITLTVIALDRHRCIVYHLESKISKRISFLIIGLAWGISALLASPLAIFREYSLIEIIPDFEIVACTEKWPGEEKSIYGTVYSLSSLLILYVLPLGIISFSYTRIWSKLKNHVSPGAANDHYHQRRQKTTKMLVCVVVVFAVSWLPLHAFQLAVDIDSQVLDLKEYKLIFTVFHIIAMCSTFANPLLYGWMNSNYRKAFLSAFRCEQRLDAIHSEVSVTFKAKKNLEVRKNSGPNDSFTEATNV

[2] = molecular target: T2, human NPY1 receptor (human, UniProt P25929 1-384); test: cell-based or functional assay
T2 sequence (looked up): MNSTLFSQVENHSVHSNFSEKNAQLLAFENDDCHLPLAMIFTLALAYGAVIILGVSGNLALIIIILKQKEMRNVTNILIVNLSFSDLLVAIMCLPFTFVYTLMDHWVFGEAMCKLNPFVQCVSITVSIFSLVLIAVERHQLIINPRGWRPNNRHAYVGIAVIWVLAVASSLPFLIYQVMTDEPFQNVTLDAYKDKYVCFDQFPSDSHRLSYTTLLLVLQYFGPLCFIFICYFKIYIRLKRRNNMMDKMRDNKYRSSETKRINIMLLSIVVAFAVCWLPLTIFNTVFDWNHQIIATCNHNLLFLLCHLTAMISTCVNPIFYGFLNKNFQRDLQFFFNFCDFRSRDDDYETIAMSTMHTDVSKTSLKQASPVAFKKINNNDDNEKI

[3] = molecular target: human NPY4 receptor (human, UniProt P50391 1-375); test: cell-based or functional assay
[4] = molecular target: T3, human NPY5 receptor (human, UniProt Q15761 1-445); test: cell-based or functional assay
T3 sequence (looked up): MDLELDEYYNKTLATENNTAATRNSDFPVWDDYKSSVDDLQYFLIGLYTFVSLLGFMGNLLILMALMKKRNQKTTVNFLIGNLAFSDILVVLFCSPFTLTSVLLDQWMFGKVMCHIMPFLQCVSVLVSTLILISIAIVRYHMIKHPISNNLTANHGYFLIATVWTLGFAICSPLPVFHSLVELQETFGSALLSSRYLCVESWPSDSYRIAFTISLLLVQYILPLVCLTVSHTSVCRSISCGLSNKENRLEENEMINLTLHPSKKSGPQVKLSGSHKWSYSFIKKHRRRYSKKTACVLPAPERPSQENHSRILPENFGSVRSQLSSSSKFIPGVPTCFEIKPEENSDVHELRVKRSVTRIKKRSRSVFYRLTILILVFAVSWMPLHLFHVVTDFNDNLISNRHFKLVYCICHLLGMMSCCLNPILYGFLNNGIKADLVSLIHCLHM

[5] = molecular target: T1, human NPY2 receptor; test: RLB: displacement of 125I-PYY(1-36) from hNPY2R membranes
[6] = molecular target: T1, human NPY2 receptor; test: RLB, apparent Ki of filtrate after incubation at pH 8.1-8.2 (assumed 10 mg/ml)
Protocol: (§1) The filtration RLB assay was carried out in 96-well plates in a final volume of 100 μl per well. Freeze-dried test peptides were dissolved in 100% dimethyl sulfoxide (DMSO) to stock solutions of 1 mM and serial dilutions were performed in assay buffer (50 mM HEPES, 5 mM MgCl₂, 1 mM CaCl₂), pH 7.4) containing 0.2% ovalbumin. […] Next, 80 μL membranes (HTS066M, ChemiSCREEN™ Human Neuropeptide Y2 Receptor Membrane Preparation, CHEMICON) were added to each well to give a final protein concentration of 0.5 μg/well. The plates were sealed and incubated at room temperature for 2 hours in a plate shaker set at 400 rpm. The incubation was stopped by vacuum filtration onto 0.5% polyethylene amine (PEI) presoaked GF/C filters using a 96-well FilterMate™ harvester (Perkin Elmer) followed by four washes with 300 μl/well ice-cold wash buffer (50 mM HEPES, 500 mM NaCl, pH7.4). Filter plates were then dried for 60 min at room temperature and the bottom of the plates was sealed with backing tape UniFilter-96. Finally, 50 μl/well scintillation counter cocktail (Microscint20, Packard) was added and the radioactivity was counted in the Packard TopCount NXT scintillation counter. IC₅₀ values (the half maximal inhibitory concentration of the agonist) were calculated by nonlinear regression analysis of sigmoidal dose-response curves.
The peptide was (partially) dissolved by shaking the filter unit horizontally at approx. 400 rpm for 2 hours at room temperature. The sample was filtered to remove any insoluble particles.

[7] = molecular target: T1, human NPY2 receptor; test: RLB, apparent Ki of filtrate after incubation at pH 7.1-7.2 (assumed 10 mg/ml)
Protocol: as §1, with “curves. […]” for “curves.”

[8] = molecular target: T1, human NPY2 receptor; test: RLB (125I-PYY(1-36) displacement, hNPY2R membranes), peptide from DMSO stock
Protocol: as §1, with “curves. […]” for “curves.”

Sequence of human NPY4 receptor (P50391 whole entry): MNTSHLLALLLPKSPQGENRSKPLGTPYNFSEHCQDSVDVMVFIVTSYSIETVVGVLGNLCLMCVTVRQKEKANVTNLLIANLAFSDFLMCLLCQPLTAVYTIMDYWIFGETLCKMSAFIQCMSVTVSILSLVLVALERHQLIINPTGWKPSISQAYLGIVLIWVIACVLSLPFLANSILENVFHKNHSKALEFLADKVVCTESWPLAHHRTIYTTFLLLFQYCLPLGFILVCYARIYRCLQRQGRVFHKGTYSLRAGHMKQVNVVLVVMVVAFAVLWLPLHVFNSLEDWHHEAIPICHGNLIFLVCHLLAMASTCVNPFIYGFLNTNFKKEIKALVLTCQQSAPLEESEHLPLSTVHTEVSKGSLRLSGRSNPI

Binder: Isovaleryl-APEK([Ahx-γGlu-C18 diacid])PEADATPEEIQRYYVSLRHYYNWLTRQRY-NH2 [Compound 7]
- EC50, HTRF cAMP Gi assay [1]: 0.143 nM
- EC50, HTRF cAMP Gi assay [2]: > 5000 nM
- EC50, HTRF cAMP Gi assay [3]: > 5000 nM
- EC50, HTRF cAMP Gi assay [4]: > 5000 nM
- Ki [5]: 1.04 nM
- Ki [6]: 3.1 nM

Binder: Isovaleryl-APEK([Ahx-γGlu-C18 diacid])PEADASPEEIQRYYIALRHYYNWLTRQRY-NH2 [Compound 40]
- EC50, HTRF cAMP Gi assay [1]: 0.122 nM
- EC50, HTRF cAMP Gi assay [2]: > 5000 nM
- EC50, HTRF cAMP Gi assay [3]: > 5000 nM
- EC50, HTRF cAMP Gi assay [4]: > 5000 nM
- Ki [5]: 0.67 nM
- Ki [7]: 7.3 nM
- Ki [6]: 3.8 nM

Binder: Isovaleryl-APAK([Ahx-γGlu-C18 diacid])PEEDASPEEIQRYYVSLRHYYNWLTRQRY-NH2 [Compound 63]
- EC50, HTRF cAMP Gi assay [1]: 0.109 nM
- EC50, HTRF cAMP Gi assay [2]: > 5000 nM
- EC50, HTRF cAMP Gi assay [3]: > 5000 nM
- EC50, HTRF cAMP Gi assay [4]: > 5000 nM
- Ki [5]: 0.93 nM
- Ki [8]: 6.6 nM

Binder: Isovaleryl-APEK([Ahx-γGlu-C18 diacid])PEADASPEELQRYYVALRHYYNWLTRQRY-NH2 [Compound 163]
- EC50, HTRF cAMP Gi assay [1]: 0.13 nM
- EC50, HTRF cAMP Gi assay [2]: > 5000 nM
- EC50, HTRF cAMP Gi assay [3]: > 5000 nM
- EC50, HTRF cAMP Gi assay [4]: > 5000 nM
- Ki [5]: 0.67 nM
- Ki [6]: 4.9 nM

B1: Compound 193 (peptide)
peptide: Isovaleryl-APEK([Ahx-γGlu-C18 diacid])PEEEASPEEIQRYYVSLRHYYNWLTRQRY-NH2
SMILES: CC[C@H](C)[C@H](NC(=O)[C@H](CCC(=O)O)NC(=O)[C@H](CCC(=O)O)NC(=O)[C@@H]1CCCN1C(=O)[C@H](CO)NC(=O)[C@H](C)NC(=O)[C@H](CCC(=O)O)NC(=O)[C@H](CCC(=O)O)NC(=O)[C@H](CCC(=O)O)NC(=O)[C@@H]1CCCN1C(=O)[C@H](CCCCNC(=O)CCCCCNC(=O)CC[C@H](NC(=O)CCCCCCCCCCCCCCCCC(=O)O)C(=O)O)NC(=O)[C@H](CCC(=O)O)NC(=O)[C@@H]1CCCN1C(=O)[C@H](C)NC(=O)CC(C)C)C(=O)N[C@@H](CCC(N)=O)C(=O)N[C@@H](CCCNC(=N)N)C(=O)N[C@@H](Cc1ccc(O)cc1)C(=O)N[C@@H](Cc1ccc(O)cc1)C(=O)N[C@H](C(=O)N[C@@H](CO)C(=O)N[C@@H](CC(C)C)C(=O)N[C@@H](CCCNC(=N)N)C(=O)N[C@@H](Cc1c[nH]cn1)C(=O)N[C@@H](Cc1ccc(O)cc1)C(=O)N[C@@H](Cc1ccc(O)cc1)C(=O)N[C@@H](CC(N)=O)C(=O)N[C@@H](Cc1c[nH]c2ccccc12)C(=O)N[C@@H](CC(C)C)C(=O)N[C@H](C(=O)N[C@@H](CCCNC(=N)N)C(=O)N[C@@H](CCC(N)=O)C(=O)N[C@@H](CCCNC(=N)N)C(=O)N[C@@H](Cc1ccc(O)cc1)C(N)=O)[C@@H](C)O)C(C)C
- EC50, HTRF cAMP Gi assay [1]: 0.331 nM
- EC50, HTRF cAMP Gi assay [2]: > 5000 nM
- EC50, HTRF cAMP Gi assay [3]: > 5000 nM
- EC50, HTRF cAMP Gi assay [4]: > 5000 nM
- Ki [5]: 3.42 nM

B2: Compound 195 (peptide)
peptide: Isovaleryl-APAK([Ahx-γGlu-C18 diacid])PEEDASPEEIQRYYISLRHYYNWLTRQRY-NH2
SMILES: CC[C@H](C)[C@H](NC(=O)[C@H](Cc1ccc(O)cc1)NC(=O)[C@H](Cc1ccc(O)cc1)NC(=O)[C@H](CCCNC(=N)N)NC(=O)[C@H](CCC(N)=O)NC(=O)[C@@H](NC(=O)[C@H](CCC(=O)O)NC(=O)[C@H](CCC(=O)O)NC(=O)[C@@H]1CCCN1C(=O)[C@H](CO)NC(=O)[C@H](C)NC(=O)[C@H](CC(=O)O)NC(=O)[C@H](CCC(=O)O)NC(=O)[C@H](CCC(=O)O)NC(=O)[C@@H]1CCCN1C(=O)[C@H](CCCCNC(=O)CCCCCNC(=O)CC[C@H](NC(=O)CCCCCCCCCCCCCCCCC(=O)O)C(=O)O)NC(=O)[C@H](C)NC(=O)[C@@H]1CCCN1C(=O)[C@H](C)NC(=O)CC(C)C)[C@@H](C)CC)C(=O)N[C@@H](CO)C(=O)N[C@@H](CC(C)C)C(=O)N[C@@H](CCCNC(=N)N)C(=O)N[C@@H](Cc1c[nH]cn1)C(=O)N[C@@H](Cc1ccc(O)cc1)C(=O)N[C@@H](Cc1ccc(O)cc1)C(=O)N[C@@H](CC(N)=O)C(=O)N[C@@H](Cc1c[nH]c2ccccc12)C(=O)N[C@@H](CC(C)C)C(=O)N[C@H](C(=O)N[C@@H](CCCNC(=N)N)C(=O)N[C@@H](CCC(N)=O)C(=O)N[C@@H](CCCNC(=N)N)C(=O)N[C@@H](Cc1ccc(O)cc1)C(N)=O)[C@@H](C)O
- EC50, HTRF cAMP Gi assay [1]: 0.197 nM
- EC50, HTRF cAMP Gi assay [2]: > 5000 nM
- EC50, HTRF cAMP Gi assay [3]: > 5000 nM
- EC50, HTRF cAMP Gi assay [4]: > 5000 nM
- Ki [5]: 0.78 nM
